Results as given in article PMC9482650, “Quantitative fragmentomics allow affinity mapping of interactomes” (Nature Communications, 2022).

Tests used:
Assay in all cases: holdup assay
Set-up in all cases: key: below the threshold = too weak to quantify, mostly under pKd 3.1 to 4
HTRA4, P83105 = biological target: T1, HTRA4, P83105
T1 sequence (P83105 378-476, limits assumed, looked up): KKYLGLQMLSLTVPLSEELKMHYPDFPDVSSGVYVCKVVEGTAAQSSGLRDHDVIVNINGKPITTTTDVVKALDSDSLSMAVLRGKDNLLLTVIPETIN

MAGI2_5, Q86UL8 = biological target: MAGI2_5, Q86UL8
PDZRN3_1, Q9UPQ7 = biological target: T2, PDZRN3_1, Q9UPQ7
T2 sequence (Q9UPQ7 244-349, limits assumed, looked up): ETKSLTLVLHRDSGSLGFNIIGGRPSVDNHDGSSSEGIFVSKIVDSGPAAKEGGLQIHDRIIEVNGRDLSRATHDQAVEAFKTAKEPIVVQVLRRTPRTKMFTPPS

MPP7, Q5T2T1 = biological target: T3, MPP7, Q5T2T1
T3 sequence (Q5T2T1 134-230, limits assumed, looked up): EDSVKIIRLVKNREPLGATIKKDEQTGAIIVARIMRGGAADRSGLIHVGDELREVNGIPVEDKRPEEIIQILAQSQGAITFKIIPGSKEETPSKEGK

HTRA1, Q92743 = biological target: HTRA1, Q92743
MAGI2_3, Q86UL8 = biological target: MAGI2_3, Q86UL8
NHERF4_2, Q86UT5 = biological target: NHERF4_2, Q86UT5
MAST1, Q9Y2H9 = biological target: MAST1, Q9Y2H9
PARD3B_1, Q8TEW8 = biological target: T4, PARD3B_1, Q8TEW8
T4 sequence (Q8TEW8 196-299, limits assumed, looked up): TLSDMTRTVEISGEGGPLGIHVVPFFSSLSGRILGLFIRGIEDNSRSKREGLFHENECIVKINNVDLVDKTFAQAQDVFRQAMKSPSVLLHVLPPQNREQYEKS

Inadl_9, Q8NI35 = biological target: Inadl_9, Q8NI35
IL16_3, Q14005 = biological target: IL16_3, Q14005
SNTG2, Q9NY99 = biological target: T5, SNTG2, Q9NY99
T5 sequence (Q9NY99 68-166, limits assumed, looked up): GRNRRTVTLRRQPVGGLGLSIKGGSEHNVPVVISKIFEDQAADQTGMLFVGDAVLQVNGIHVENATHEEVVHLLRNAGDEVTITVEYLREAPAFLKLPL

LIN7A, O14910 = biological target: T6, LIN7A, O14910
T6 sequence (O14910 103-200, limits assumed, looked up): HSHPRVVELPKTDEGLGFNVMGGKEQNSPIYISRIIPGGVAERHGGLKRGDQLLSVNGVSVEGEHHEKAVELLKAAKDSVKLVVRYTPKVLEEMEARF

Inadl_3, Q8NI35 = biological target: Inadl_3, Q8NI35
RAPGEF6, Q8TEU7 = biological target: T7, RAPGEF6, Q8TEU7
T7 sequence (Q8TEU7 525-625, limits assumed, looked up): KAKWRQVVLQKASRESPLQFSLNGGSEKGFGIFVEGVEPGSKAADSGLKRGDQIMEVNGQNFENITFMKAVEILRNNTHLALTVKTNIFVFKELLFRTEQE

LNX1_1, Q8TBB1 = biological target: LNX1_1, Q8TBB1
MAGI1_2, Q96QZ7 = biological target: MAGI1_2, Q96QZ7
SCRIB_3, Q14160 = biological target: SCRIB_3, Q14160
LIMK2, P53671 = biological target: LIMK2, P53671
DLG3_2, Q92796 = biological target: T8, DLG3_2, Q92796
T8 sequence (Q92796 221-321, limits assumed, looked up): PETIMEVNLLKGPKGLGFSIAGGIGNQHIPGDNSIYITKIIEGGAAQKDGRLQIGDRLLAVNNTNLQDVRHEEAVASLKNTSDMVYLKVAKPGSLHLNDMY

DLG4_1, P78352 = biological target: DLG4_1, P78352
NHERF3_4, Q5T2W1 = biological target: T9, NHERF3_4, Q5T2W1
T9 sequence (Q5T2W1 373-468, limits assumed, looked up): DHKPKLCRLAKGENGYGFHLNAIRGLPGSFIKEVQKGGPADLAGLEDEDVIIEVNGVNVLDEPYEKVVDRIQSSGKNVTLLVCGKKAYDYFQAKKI

PICK1, Q9NRD5 = biological target: PICK1, Q9NRD5
GRIP2_7, Q9C0E4 = biological target: GRIP2_7, Q9C0E4
FRMPD4, Q14CM0 = biological target: FRMPD4, Q14CM0
SNTG1, Q9NSN8 = biological target: T10, SNTG1, Q9NSN8
T10 sequence (Q9NSN8 52-150, limits assumed, looked up): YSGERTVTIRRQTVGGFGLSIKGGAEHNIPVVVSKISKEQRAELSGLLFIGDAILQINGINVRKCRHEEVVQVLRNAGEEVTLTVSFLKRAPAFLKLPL

NHERF2_2, Q15599 = biological target: NHERF2_2, Q15599
[1] = plain residues with an end cap or a label only (N-terminal biotin on a linker: ttds)
[2] = plain residues with an end cap or a label only (N-terminal biotin on a linker: gsgsgs; C-terminal amide)
[3] = plain residues with an end cap or a label only (N-terminal biotin on a linker: ado-ado)

NHERF4_2, Q86UT5, sequence (Q86UT5 220-308): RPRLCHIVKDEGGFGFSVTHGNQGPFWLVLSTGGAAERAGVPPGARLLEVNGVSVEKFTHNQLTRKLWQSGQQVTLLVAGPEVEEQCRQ
GRIP2_7, Q9C0E4, sequence (Q9C0E4 934-1023): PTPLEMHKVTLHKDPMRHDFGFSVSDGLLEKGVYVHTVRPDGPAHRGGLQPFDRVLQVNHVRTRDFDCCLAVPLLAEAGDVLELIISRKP
MAGI1_2, Q96QZ7, sequence (Q96QZ7 456-580): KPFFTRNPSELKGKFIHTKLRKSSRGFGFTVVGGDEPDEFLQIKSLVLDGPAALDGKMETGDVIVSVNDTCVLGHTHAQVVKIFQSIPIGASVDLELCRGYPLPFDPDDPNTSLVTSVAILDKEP
MAGI2_3, Q86UL8, sequence (Q86UL8 600-682): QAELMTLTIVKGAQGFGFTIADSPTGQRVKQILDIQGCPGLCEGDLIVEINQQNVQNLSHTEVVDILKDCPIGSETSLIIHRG
Inadl_9, Q8NI35, sequence (Q8NI35 1530-1615): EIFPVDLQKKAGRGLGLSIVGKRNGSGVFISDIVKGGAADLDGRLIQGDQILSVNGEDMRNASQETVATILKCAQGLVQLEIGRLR
SCRIB_3, Q14160, sequence (Q14160 999-1103): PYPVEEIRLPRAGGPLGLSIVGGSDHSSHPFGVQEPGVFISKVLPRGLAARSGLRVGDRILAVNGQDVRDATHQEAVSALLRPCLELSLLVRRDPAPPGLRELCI
LNX1_1, Q8TBB1, sequence (Q8TBB1 261-371): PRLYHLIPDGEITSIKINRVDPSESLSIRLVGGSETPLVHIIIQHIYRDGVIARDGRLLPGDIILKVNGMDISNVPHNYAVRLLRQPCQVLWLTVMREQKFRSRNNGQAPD
Inadl_3, Q8NI35, sequence (Q8NI35 359-469): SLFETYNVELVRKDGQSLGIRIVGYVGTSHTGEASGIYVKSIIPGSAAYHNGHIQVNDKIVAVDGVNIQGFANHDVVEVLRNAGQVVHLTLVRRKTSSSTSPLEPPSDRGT
NHERF2_2, Q15599, sequence (Q15599 142-238): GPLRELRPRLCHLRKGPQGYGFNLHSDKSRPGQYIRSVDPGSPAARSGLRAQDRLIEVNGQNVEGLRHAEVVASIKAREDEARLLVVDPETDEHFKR
PICK1, Q9NRD5, sequence (Q9NRD5 17-115): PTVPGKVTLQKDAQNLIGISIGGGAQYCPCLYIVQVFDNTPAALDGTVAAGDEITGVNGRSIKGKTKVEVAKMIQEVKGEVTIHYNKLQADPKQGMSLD
DLG4_1, P78352, sequence (P78352 62-152): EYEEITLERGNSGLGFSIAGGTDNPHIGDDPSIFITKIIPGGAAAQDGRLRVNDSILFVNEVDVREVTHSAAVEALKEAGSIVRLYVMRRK
FRMPD4, Q14CM0, sequence (Q14CM0 67-160): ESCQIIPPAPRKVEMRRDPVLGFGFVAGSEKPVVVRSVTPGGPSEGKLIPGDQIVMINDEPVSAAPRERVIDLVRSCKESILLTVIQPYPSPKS
LIMK2, P53671, sequence (P53671 143-248): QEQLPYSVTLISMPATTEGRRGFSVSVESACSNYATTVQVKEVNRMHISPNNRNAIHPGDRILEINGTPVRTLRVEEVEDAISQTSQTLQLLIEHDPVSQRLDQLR
HTRA1, Q92743, sequence (Q92743 360-477): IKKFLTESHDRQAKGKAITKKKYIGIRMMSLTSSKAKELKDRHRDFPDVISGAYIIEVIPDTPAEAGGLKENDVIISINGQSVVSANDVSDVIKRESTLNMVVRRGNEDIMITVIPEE
IL16_3, Q14005, sequence (Q14005 1107-1207): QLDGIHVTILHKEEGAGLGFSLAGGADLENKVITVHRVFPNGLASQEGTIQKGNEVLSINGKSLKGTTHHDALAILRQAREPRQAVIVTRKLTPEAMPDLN
MAGI2_5, Q86UL8, sequence (Q86UL8 915-1017): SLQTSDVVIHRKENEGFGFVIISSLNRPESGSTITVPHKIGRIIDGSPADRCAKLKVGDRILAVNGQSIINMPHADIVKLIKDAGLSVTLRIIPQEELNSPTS
MAST1, Q9Y2H9, sequence (Q9Y2H9 962-1065): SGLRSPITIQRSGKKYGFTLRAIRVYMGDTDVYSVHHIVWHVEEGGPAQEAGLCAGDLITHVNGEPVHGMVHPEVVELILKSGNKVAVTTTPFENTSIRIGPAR

GGPKEEESPV [SLC16A1, P53985]
pKd (HTRA4, P83105; [1]): below the threshold
pKd (MAGI2_5, Q86UL8; [1]): 3.62
pKd (PDZRN3_1, Q9UPQ7; [1]): below the threshold
pKd (MPP7, Q5T2T1; [1]): below the threshold
pKd (HTRA1, Q92743; [1]): below the threshold
pKd (MAGI2_3, Q86UL8; [1]): below the threshold
pKd (NHERF4_2, Q86UT5; [1]): below the threshold
pKd (MAST1, Q9Y2H9; [1]): below the threshold
pKd (PARD3B_1, Q8TEW8; [1]): below the threshold
pKd (Inadl_9, Q8NI35; [1]): below the threshold
pKd (IL16_3, Q14005; [1]): below the threshold
pKd (SNTG2, Q9NY99; [1]): below the threshold
pKd (LIN7A, O14910; [1]): below the threshold
pKd (Inadl_3, Q8NI35; [1]): below the threshold
pKd (RAPGEF6, Q8TEU7; [1]): below the threshold
pKd (LNX1_1, Q8TBB1; [1]): below the threshold
pKd (MAGI1_2, Q96QZ7; [1]): below the threshold
pKd (SCRIB_3, Q14160; [1]): below the threshold
pKd (LIMK2, P53671; [1]): below the threshold
pKd (DLG3_2, Q92796; [1]): below the threshold
pKd (DLG4_1, P78352; [1]): below the threshold
pKd (NHERF3_4, Q5T2W1; [1]): below the threshold
pKd (PICK1, Q9NRD5; [1]): below the threshold
pKd (GRIP2_7, Q9C0E4; [1]): below the threshold
pKd (FRMPD4, Q14CM0; [1]): below the threshold
pKd (SNTG1, Q9NSN8; [1]): 3.99
pKd (NHERF2_2, Q15599; [1]): below the threshold

ELIQDTSTSFSTTREW [ARAP3_int, Q8WWN8]
pKd (HTRA4, P83105; [2]): below the threshold
pKd (MAGI2_5, Q86UL8; [2]): below the threshold
pKd (PDZRN3_1, Q9UPQ7; [2]): below the threshold
pKd (MPP7, Q5T2T1; [2]): below the threshold
pKd (HTRA1, Q92743; [2]): below the threshold
pKd (MAGI2_3, Q86UL8; [2]): 3.5
pKd (NHERF4_2, Q86UT5; [2]): below the threshold
pKd (MAST1, Q9Y2H9; [2]): 3.49
pKd (PARD3B_1, Q8TEW8; [2]): below the threshold
pKd (Inadl_9, Q8NI35; [2]): below the threshold
pKd (IL16_3, Q14005; [2]): below the threshold
pKd (SNTG2, Q9NY99; [2]): below the threshold
pKd (LIN7A, O14910; [2]): below the threshold
pKd (Inadl_3, Q8NI35; [2]): below the threshold
pKd (RAPGEF6, Q8TEU7; [2]): below the threshold
pKd (LNX1_1, Q8TBB1; [2]): below the threshold
pKd (MAGI1_2, Q96QZ7; [2]): below the threshold
pKd (SCRIB_3, Q14160; [2]): below the threshold
pKd (LIMK2, P53671; [2]): below the threshold
pKd (DLG3_2, Q92796; [2]): 4.16
pKd (DLG4_1, P78352; [2]): below the threshold
pKd (NHERF3_4, Q5T2W1; [2]): below the threshold
pKd (PICK1, Q9NRD5; [2]): below the threshold
pKd (GRIP2_7, Q9C0E4; [2]): below the threshold
pKd (FRMPD4, Q14CM0; [2]): below the threshold
pKd (SNTG1, Q9NSN8; [2]): below the threshold
pKd (NHERF2_2, Q15599; [2]): below the threshold

EEPEERHTEL [CES2, O00748]
pKd (HTRA4, P83105; [3]): below the threshold
pKd (MAGI2_5, Q86UL8; [3]): 4.4
pKd (PDZRN3_1, Q9UPQ7; [3]): 4.15
pKd (MPP7, Q5T2T1; [3]): 3.79
pKd (HTRA1, Q92743; [3]): 4.36
pKd (MAGI2_3, Q86UL8; [3]): below the threshold
pKd (NHERF4_2, Q86UT5; [3]): below the threshold
pKd (MAST1, Q9Y2H9; [3]): 3.53
pKd (PARD3B_1, Q8TEW8; [3]): 3.71
pKd (Inadl_9, Q8NI35; [3]): below the threshold
pKd (IL16_3, Q14005; [3]): below the threshold
pKd (SNTG2, Q9NY99; [3]): below the threshold
pKd (LIN7A, O14910; [3]): below the threshold
pKd (Inadl_3, Q8NI35; [3]): below the threshold
pKd (RAPGEF6, Q8TEU7; [3]): 3.56
pKd (LNX1_1, Q8TBB1; [3]): 3.8
pKd (MAGI1_2, Q96QZ7; [3]): below the threshold
pKd (SCRIB_3, Q14160; [3]): 4.89
pKd (LIMK2, P53671; [3]): below the threshold
pKd (DLG3_2, Q92796; [3]): 4.38
pKd (DLG4_1, P78352; [3]): below the threshold
pKd (NHERF3_4, Q5T2W1; [3]): 4.48
pKd (PICK1, Q9NRD5; [3]): below the threshold
pKd (GRIP2_7, Q9C0E4; [3]): below the threshold
pKd (FRMPD4, Q14CM0; [3]): 4.04
pKd (SNTG1, Q9NSN8; [3]): 3.59
pKd (NHERF2_2, Q15599; [3]): 4.63

LHLHGTGIQV [EPHA7, Q15375]
pKd (HTRA4, P83105; [3]): 4.1
pKd (MAGI2_5, Q86UL8; [3]): below the threshold
pKd (PDZRN3_1, Q9UPQ7; [3]): below the threshold
pKd (MPP7, Q5T2T1; [3]): below the threshold
pKd (HTRA1, Q92743; [3]): 4.36
pKd (MAGI2_3, Q86UL8; [3]): 3.63
pKd (NHERF4_2, Q86UT5; [3]): 3.54
pKd (MAST1, Q9Y2H9; [3]): below the threshold
pKd (PARD3B_1, Q8TEW8; [3]): 3.72
pKd (Inadl_9, Q8NI35; [3]): 4.37
pKd (IL16_3, Q14005; [3]): below the threshold
pKd (SNTG2, Q9NY99; [3]): below the threshold
pKd (LIN7A, O14910; [3]): below the threshold
pKd (Inadl_3, Q8NI35; [3]): 3.55
pKd (RAPGEF6, Q8TEU7; [3]): below the threshold
pKd (LNX1_1, Q8TBB1; [3]): below the threshold
pKd (MAGI1_2, Q96QZ7; [3]): below the threshold
pKd (SCRIB_3, Q14160; [3]): 3.53
pKd (LIMK2, P53671; [3]): below the threshold
pKd (DLG3_2, Q92796; [3]): below the threshold
pKd (DLG4_1, P78352; [3]): 3.73
pKd (NHERF3_4, Q5T2W1; [3]): 3.81
pKd (PICK1, Q9NRD5; [3]): 3.56
pKd (GRIP2_7, Q9C0E4; [3]): 3.82
pKd (FRMPD4, Q14CM0; [3]): 3.97
pKd (SNTG1, Q9NSN8; [3]): 3.57
pKd (NHERF2_2, Q15599; [3]): below the threshold
